{"source": "paper PMC9537309", "parents": {"B1": {"name": "FLAG-tagged DND1 wild-type (Dead End, full-length human protein 1-353) [human] / MEX3A [human (endogenous in HEK293T)] (parent)", "chain 1": "MQSKRDCELWCERVNPENKAALEAWVRETGIRLVQVNGQRKYGGPPPGWVGSPPPAGSEVFIGRLPQDVYEHQLIPLFQRVGRLYEFRLMMTFSGLNRGFAYARYSSRRGAQAAIATLHNHPLRPSCPLLVCRSTEKCELSVDGLPPNLTRSALLLALQPLGPGLQEARLLPSPGPAPGQIALLKFSSHRAAAMAKKALVEGQSHLCGEQVAVEWLKPDLKQRLRQQLVGPFLRSPQPEGSQLALARDKLGFQGARATLQLLCQRMKLGSPVFLTKCLGIGPAGWHRFWYQVVIPGHPVPFSGLIWVVLTLDGRDGHEVAKDAVSVRLLQALSESGANLLWSAGAEAGTMVKQ", "chain 2": "MPSLVVSGIMERNGGFGELGCFGGSAKDRGLLEDERALQLALDQLCLLGLGEPPAPTAGEDGGGGGGGAPAQPAAPPQPAPPPPPAAPPAAPTAAPAAQTPQPPTAPKGASDAKLCALYKEAELRLKGSSNTTECVPVPTSEHVAEIVGRQGCKIKALRAKTNTYIKTPVRGEEPVFMVTGRREDVATARREIISAAEHFSMIRASRNKSGAAFGVAPALPGQVTIRVRVPYRVVGLVVGPKGATIKRIQQQTNTYIITPSRDRDPVFEITGAPGNVERAREEIETHIAVRTGKILEYNNENDFLAGSPDAAIDSRYSDAWRVHQPGCKPLSTFRQNSLGCIGECGVDSGFEAPRLGEQGGDFGYGGYLFPGYGVGKQDVYYGVAETSPPLWAGQENATPTSVLFSSASSSSSSSAKARAGPPGAHRSPATSAGPELAGLPRRPPGEPLQGFSKLGGGGLRSPGGGRDCMVCFESEVTAALVPCGHNLFCMECAVRICERTDPECPVCHITATQAIRIFS"}, "B2": {"name": "FLAG-tagged DND1 wild-type (Dead End, full-length human protein 1-353) [human] / SYNCRIP [human (endogenous in HEK293T)] (parent)", "chain 1": "B1 chain 1", "chain 2": "MATEHVNGNGTEEPMDTTSAVIHSENFQTLLDAGLPQKVAEKLDEIYVAGLVAHSDLDERAIEALKEFNEDGALAVLQQFKDSDLSHVQNKSAFLCGVMKTYRQREKQGTKVADSSKGPDEAKIKALLERTGYTLDVTTGQRKYGGPPPDSVYSGQQPSVGTEIFVGKIPRDLFEDELVPLFEKAGPIWDLRLMMDPLTGLNRGYAFVTFCTKEAAQEAVKLYNNHEIRSGKHIGVCISVANNRLFVGSIPKSKTKEQILEEFSKVTEGLTDVILYHQPDDKKKNRGFCFLEYEDHKTAAQARRRLMSGKVKVWGNVGTVEWADPIEDPDPEVMAKVKVLFVRNLANTVTEEILEKAFSQFGKLERVKKLKDYAFIHFDERDGAVKAMEEMNGKDLEGENIEIVFAKPPDQKRKERKAQRQAAKNQMYDDYYYYGPPHMPPPTRGRGRGGRGGYGYPPDYYGYEDYYDYYGYDYHNYRGGYEDPYYGYEDFQVGARGRGGRGARGAAPSRGRGAAPPRGRAGYSQRGGPGSARGVRGARGGAQQQRGRGVRGARGGRGGNVGGKRKADGYNQPDSKRRQTNNQNWGSQPIAQQPLQGGDHSGNYGYKSENQEFYQDTFGQQWK"}, "B3": {"name": "FLAG-tagged DND1 wild-type (Dead End, full-length human protein 1-353) [human] / DHX30 [human (endogenous in HEK293T)] (parent)", "chain 1": "B1 chain 1", "chain 2": "MFSLDSFRKDRAQHRQRQCKLPPPRLPPMCVNPTPGGTISRASRDLLKEFPQPKNLLNSVIGRALGISHAKDKLVYVHTNGPKKKKVTLHIKWPKSVEVEGYGSKKIDAERQAAAAACQLFKGWGLLGPRNELFDAAKYRVLADRFGSPADSWWRPEPTMPPTSWRQLNPESIRPGGPGGLSRSLGREEEEDEEEELEEGTIDVTDFLSMTQQDSHAPLRDSRGSSFEMTDDDSAIRALTQFPLPKNLLAKVIQIATSSSTAKNLMQFHTVGTKTKLSTLTLLWPCPMTFVAKGRRKAEAENKAAALACKKLKSLGLVDRNNEPLTHAMYNLASLRELGETQRRPCTIQVPEPILRKIETFLNHYPVESSWIAPELRLQSDDILPLGKDSGPLSDPITGKPYVPLLEAEEVRLSQSLLELWRRRGPVWQEAPQLPVDPHRDTILNAIEQHPVVVISGDTGCGKTTRIPQLLLERYVTEGRGARCNVIITQPRRISAVSVAQRVSHELGPSLRRNVGFQVRLESKPPSRGGALLFCTVGILLRKLQSNPSLEGVSHVIVDEVHERDVNTDFLLILLKGLQRLNPALRLVLMSATGDNERFSRYFGGCPVIKVPGFMYPVKEHYLEDILAKLGKHQYLHRHRHHESEDECALDLDLVTDLVLHIDARGEPGGILCFLPGWQEIKGVQQRLQEALGMHESKYLILPVHSNIPMMDQKAIFQQPPVGVRKIVLATNIAETSITINDIVHVVDSGLHKEERYDLKTKVSCLETVWVSRANVIQRRGRAGRCQSGFAYHLFPRSRLEKMVPFQVPEILRTPLENLVLQAKIHMPEKTAVEFLSKAVDSPNIKAVDEAVILLQEIGVLDQREYLTTLGQRLAHISTDPRLAKAIVLAAIFRCLHPLLVVVSCLTRDPFSSSLQNRAEVDKVKALLSHDSGSDHLAFVRAVAGWEEVLRWQDRSSRENYLEENLLYAPSLRFIHGLIKQFSENIYEAFLVGKPSDCTLASAQCNEYSEEEELVKGVLMAGLYPNLIQVRQGKVTRQGKFKPNSVTYRTKSGNILLHKSTINREATRLRSRWLTYFMAVKSNGSVFVRDSSQVHPLAVLLLTDGDVHIRDDGRRATISLSDSDLLRLEGDSRTVRLLKELRRALGRMVERSLRSELAALPPSVQEEHGQLLALLAELLRGPCGSFDVRKTADD"}, "B4": {"name": "FLAG-tagged DND1 wild-type (Dead End, full-length human protein 1-353) [human] / HNRNPC [human (endogenous in HEK293T)] (parent)", "chain 1": "B1 chain 1", "chain 2": "MASNVTNKTDPRSMNSRVFIGNLNTLVVKKSDVEAIFSKYGKIVGCSVHKGFAFVQYVNERNARAAVAGEDGRMIAGQVLDINLAAEPKVNRGKAGVKRSAAEMYGSVTEHPSPSPLLSSSFDLDYDFQRDYYDRMYSYPARVPPPPPIARAVVPSKRQRVSGNTSRRGKSGFNSKSGQRGSSKSGKLKGDDLQAIKKELTQIKQKVDSLLENLEKIEKEQSKQAVEMKNDKSEEEQSSSSVKKDETNVKMESEGGADDSAEEGDLLDDDDNEDRGDDQLELIKDDEKEAEEGEDDRDSANGEDDS"}, "B5": {"name": "FLAG-tagged DND1 wild-type (Dead End, full-length human protein 1-353) [human] / HNRNPL [human (endogenous in HEK293T)] (parent)", "chain 1": "B1 chain 1", "chain 2": "MSRRLLPRAEKRRRRLEQRQQPDEQRRRSGAMVKMAAAGGGGGGGRYYGGGSEGGRAPKRLKTDNAGDQHGGGGGGGGGAGAAGGGGGGENYDDPHKTPASPVVHIRGLIDGVVEADLVEALQEFGPISYVVVMPKKRQALVEFEDVLGACNAVNYAADNQIYIAGHPAFVNYSTSQKISRPGDSDDSRSVNSVLLFTILNPIYSITTDVLYTICNPCGPVQRIVIFRKNGVQAMVEFDSVQSAQRAKASLNGADIYSGCCTLKIEYAKPTRLNVFKNDQDTWDYTNPNLSGQGDPGSNPNKRQRQPPLLGDHPAEYGGPHGGYHSHYHDEGYGPPPPHYEGRRMGPPVGGHRRGPSRYGPQYGHPPPPPPPPEYGPHADSPVLMVYGLDQSKMNCDRVFNVFCLYGNVEKVKFMKSKPGAAMVEMADGYAVDRAITHLNNNFMFGQKLNVCVSKQPAIMPGQSYGLEDGSCSYKDFSESRNNRFSTPEQAAKNRIQHPSNVLHFFNAPLEVTEENFFEICDELGVKRPSSVKVFSGKSERSSSGLLEWESKSDALETLGFLNHYQMKNPNGPYPYTLKLCFSTAQHAS"}, "B6": {"name": "FLAG-tagged DND1 wild-type (Dead End, full-length human protein 1-353) [human] / RNA helicase MOV10 [human (endogenous in HEK293T)] (parent)", "chain 1": "B1 chain 1", "chain 2": "MPSKFSCRQLREAGQCFESFLVVRGLDMETDRERLRTIYNRDFKISFGTPAPGFSSMLYGMKIANLAYVTKTRVRFFRLDRWADVRFPEKRRMKLGSDISKHHKSLLAKIFYDRAEYLHGKHGVDVEVQGPHEARDGQLLIRLDLNRKEVLTLRLRNGGTQSVTLTHLFPLCRTPQFAFYNEDQELPCPLGPGECYELHVHCKTSFVGYFPATVLWELLGPGESGSEGAGTFYIARFLAAVAHSPLAAQLKPMTPFKRTRITGNPVVTNRIEEGERPDRAKGYDLELSMALGTYYPPPRLRQLLPMLLQGTSIFTAPKEIAEIKAQLETALKWRNYEVKLRLLLHLEELQMEHDIRHYDLESVPMTWDPVDQNPRLLTLEVPGVTESRPSVLRGDHLFALLSSETHQEDPITYKGFVHKVELDRVKLSFSMSLLSRFVDGLTFKVNFTFNRQPLRVQHRALELTGRWLLWPMLFPVAPRDVPLLPSDVKLKLYDRSLESNPEQLQAMRHIVTGTTRPAPYIIFGPPGTGKTVTLVEAIKQVVKHLPKAHILACAPSNSGADLLCQRLRVHLPSSIYRLLAPSRDIRMVPEDIKPCCNWDAKKGEYVFPAKKKLQEYRVLITTLITAGRLVSAQFPIDHFTHIFIDEAGHCMEPESLVAIAGLMEVKETGDPGGQLVLAGDPRQLGPVLRSPLTQKHGLGYSLLERLLTYNSLYKKGPDGYDPQFITKLLRNYRSHPTILDIPNQLYYEGELQACADVVDRERFCRWAGLPRQGFPIIFHGVMGKDEREGNSPSFFNPEEAATVTSYLKLLLAPSSKKGKARLSPRSVGVISPYRKQVEKIRYCITKLDRELRGLDDIKDLKVGSVEEFQGQERSVILISTVRSSQSFVQLDLDFNLGFLKNPKRFNVAVTRAKALLIIVGNPLLLGHDPDWKVFLEFCKENGGYTGCPFPAKLDLQQGQNLLQGLSKLSPSTSGPHSHDYLPQEREGEGGLSLQVEPEWRNEL"}, "B7": {"name": "FLAG-tagged DND1 wild-type (Dead End, full-length human protein 1-353) [human] / MATR3 [human (endogenous in HEK293T)] (parent)", "chain 1": "B1 chain 1", "chain 2": "MSKSFQQSSLSRDSQGHGRDLSAAGIGLLAAATQSLSMPASLGRMNQGTARLASLMNLGMSSSLNQQGAHSALSSASTSSHNLQSIFNIGSRGPLPLSSQHRGDADQASNILASFGLSARDLDELSRYPEDKITPENLPQILLQLKRRRTEEGPTLSYGRDGRSATREPPYRVPRDDWEEKRHFRRDSFDDRGPSLNPVLDYDHGSRSQESGYYDRMDYEDDRLRDGERCRDDSFFGETSHNYHKFDSEYERMGRGPGPLQERSLFEKKRGAPPSSNIEDFHGLLPKGYPHLCSICDLPVHSNKEWSQHINGASHSRRCQLLLEIYPEWNPDNDTGHTMGDPFMLQQSTNPAPGILGPPPPSFHLGGPAVGPRGNLGAGNGNLQGPRHMQKGRVETSRVVHIMDFQRGKNLRYQLLQLVEPFGVISNHLILNKINEAFIEMATTEDAQAAVDYYTTTPALVFGKPVRVHLSQKYKRIKKPEGKPDQKFDQKQELGRVIHLSNLPHSGYSDSAVLKLAEPYGKIKNYILMRMKSQAFIEMETREDAMAMVDHCLKKALWFQGRCVKVDLSEKYKKLVLRIPNRGIDLLKKDKSRKRSYSPDGKESPSDKKSKTDGSQKTESSTEGKEQEEKSGEDGEKDTKDDQTEQEPNMLLESEDELLVDEEEAAALLESGSSVGDETDLANLGDVASDGKKEPSDKAVKKDGSASAAAKKKLKKVDKIEELDQENEAALENGIKNEENTEPGAESSENADDPNKDTSENADGQSDENKDDYTIPDEYRIGPYQPNVPVGIDYVIPKTGFYCKLCSLFYTNEEVAKNTHCSSLPHYQKLKKFLNKLAEERRQKKET"}}, "data": [{"variants_of": "B1", "assay": "FLAG immunoprecipitation and LC/ESI-MS/MS", "conditions": "with MEX3A [human (endogenous in HEK293T)]; HEK293T cells, three biological replicates; read off a plot", "values": [{"variant": "chain 1 R98A", "screen value": -3.2}]}, {"variants_of": "B2", "assay": "FLAG immunoprecipitation and LC/ESI-MS/MS", "conditions": "with SYNCRIP [human (endogenous in HEK293T)]; HEK293T cells, three biological replicates; read off a plot", "values": [{"variant": "chain 1 R98A", "screen value": -2.5}]}, {"variants_of": "B3", "assay": "FLAG immunoprecipitation and LC/ESI-MS/MS", "conditions": "with DHX30 [human (endogenous in HEK293T)]; HEK293T cells, three biological replicates; read off a plot", "values": [{"variant": "chain 1 R98A", "screen value": -2.3}]}, {"variants_of": "B4", "assay": "FLAG immunoprecipitation and LC/ESI-MS/MS", "conditions": "with HNRNPC [human (endogenous in HEK293T)]; HEK293T cells, three biological replicates; read off a plot", "values": [{"variant": "chain 1 R98A", "screen value": -0.8}]}, {"variants_of": "B5", "assay": "FLAG immunoprecipitation and LC/ESI-MS/MS", "conditions": "with HNRNPL [human (endogenous in HEK293T)]; HEK293T cells, three biological replicates; read off a plot", "values": [{"variant": "chain 1 R98A", "screen value": -1.7}]}, {"variants_of": "B6", "assay": "FLAG immunoprecipitation and LC/ESI-MS/MS", "conditions": "with RNA helicase MOV10 [human (endogenous in HEK293T)]; HEK293T cells, three biological replicates; read off a plot", "values": [{"variant": "chain 1 R98A", "screen value": -3.2}]}, {"variants_of": "B7", "assay": "FLAG immunoprecipitation and LC/ESI-MS/MS", "conditions": "with MATR3 [human (endogenous in HEK293T)]; HEK293T cells, three biological replicates; read off a plot", "values": [{"variant": "chain 1 R98A", "screen value": -0.52}]}]}
